US7202329 (MYRIAD GENETICS, dated 2007)

Tests used:
Assay in all cases: yeast two-hybrid
[1] = biological target: T1, GTPase-activating protein 1 (aa 1392-1657) (UniProt P46940 1392-1657)
T1 construct: range 1392-1657; also called IQGAP1; IQGAP
T1 sequence (looked up): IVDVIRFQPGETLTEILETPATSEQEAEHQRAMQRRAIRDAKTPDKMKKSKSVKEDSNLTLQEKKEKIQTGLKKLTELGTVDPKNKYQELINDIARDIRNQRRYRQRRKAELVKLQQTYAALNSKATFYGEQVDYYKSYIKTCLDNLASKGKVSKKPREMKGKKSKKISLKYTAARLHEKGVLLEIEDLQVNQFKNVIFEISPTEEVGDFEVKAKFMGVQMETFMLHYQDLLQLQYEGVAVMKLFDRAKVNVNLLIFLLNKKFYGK

[2] = biological target: T2, serum deprivation response (aa 75-258) (UniProt O95810 75-258)
T2 construct: range 75-258
T2 sequence (looked up): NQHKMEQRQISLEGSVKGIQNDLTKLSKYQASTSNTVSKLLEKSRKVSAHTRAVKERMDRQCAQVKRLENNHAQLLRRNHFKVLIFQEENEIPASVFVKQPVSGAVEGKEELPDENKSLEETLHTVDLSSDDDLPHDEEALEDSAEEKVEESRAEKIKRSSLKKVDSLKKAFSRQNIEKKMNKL

[3] = biological target: T3, mitotic spindle coiled-coil related protein (aa 723-1012) (UniProt Q96R06 723-1012)
T3 construct: range 723-1012
T3 sequence (looked up): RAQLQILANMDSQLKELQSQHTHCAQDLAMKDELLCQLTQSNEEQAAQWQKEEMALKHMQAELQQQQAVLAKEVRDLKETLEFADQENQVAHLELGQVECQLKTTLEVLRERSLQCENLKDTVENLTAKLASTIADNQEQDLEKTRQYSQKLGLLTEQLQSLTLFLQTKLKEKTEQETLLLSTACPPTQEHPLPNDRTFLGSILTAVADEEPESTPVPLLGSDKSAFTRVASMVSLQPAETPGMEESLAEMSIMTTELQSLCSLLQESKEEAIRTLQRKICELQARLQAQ

[4] = biological target: T4, mitotic spindle coiled-coil related protein (aa 701-1082) (UniProt Q96R06 701-1082)
T4 construct: range 701-1082
T4 sequence (looked up): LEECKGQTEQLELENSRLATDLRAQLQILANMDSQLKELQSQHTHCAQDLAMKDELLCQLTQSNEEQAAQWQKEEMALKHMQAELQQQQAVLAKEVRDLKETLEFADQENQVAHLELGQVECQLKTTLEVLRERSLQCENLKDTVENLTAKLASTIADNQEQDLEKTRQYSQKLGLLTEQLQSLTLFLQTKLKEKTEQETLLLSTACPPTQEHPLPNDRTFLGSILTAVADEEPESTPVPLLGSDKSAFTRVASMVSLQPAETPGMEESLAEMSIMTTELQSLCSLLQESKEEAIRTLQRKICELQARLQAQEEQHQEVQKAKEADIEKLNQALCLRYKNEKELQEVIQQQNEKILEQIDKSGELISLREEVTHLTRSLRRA

[5] = biological target: T5, hook2 protein (aa 290-555) (UniProt Q96ED9 290-555)
T5 construct: range 290-555
T5 sequence (looked up): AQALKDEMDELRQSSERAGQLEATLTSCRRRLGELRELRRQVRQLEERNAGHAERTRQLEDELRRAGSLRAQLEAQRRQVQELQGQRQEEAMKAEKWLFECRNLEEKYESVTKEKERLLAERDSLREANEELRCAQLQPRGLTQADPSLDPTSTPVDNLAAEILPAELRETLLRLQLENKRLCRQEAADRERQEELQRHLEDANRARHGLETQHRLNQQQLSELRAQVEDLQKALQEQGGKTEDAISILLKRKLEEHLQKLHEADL

[6] = biological target: T6, hook2 protein (aa 201-559) (UniProt Q96ED9 201-559)
T6 construct: range 201-559
T6 sequence (looked up): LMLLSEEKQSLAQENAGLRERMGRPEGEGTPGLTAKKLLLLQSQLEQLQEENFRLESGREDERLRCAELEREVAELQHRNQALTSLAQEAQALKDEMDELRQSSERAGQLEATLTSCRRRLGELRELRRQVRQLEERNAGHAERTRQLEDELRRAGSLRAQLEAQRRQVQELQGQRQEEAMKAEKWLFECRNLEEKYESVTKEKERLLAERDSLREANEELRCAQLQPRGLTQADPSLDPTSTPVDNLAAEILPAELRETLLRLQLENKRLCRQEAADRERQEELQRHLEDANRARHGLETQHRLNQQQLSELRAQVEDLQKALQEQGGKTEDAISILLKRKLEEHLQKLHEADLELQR

[7] = biological target: T7, catenin, GenBank U96136 (aa 684-1148) (UniProt Q9UQB3 684-1148)
T7 construct: range 684-1148
T7 sequence (looked up): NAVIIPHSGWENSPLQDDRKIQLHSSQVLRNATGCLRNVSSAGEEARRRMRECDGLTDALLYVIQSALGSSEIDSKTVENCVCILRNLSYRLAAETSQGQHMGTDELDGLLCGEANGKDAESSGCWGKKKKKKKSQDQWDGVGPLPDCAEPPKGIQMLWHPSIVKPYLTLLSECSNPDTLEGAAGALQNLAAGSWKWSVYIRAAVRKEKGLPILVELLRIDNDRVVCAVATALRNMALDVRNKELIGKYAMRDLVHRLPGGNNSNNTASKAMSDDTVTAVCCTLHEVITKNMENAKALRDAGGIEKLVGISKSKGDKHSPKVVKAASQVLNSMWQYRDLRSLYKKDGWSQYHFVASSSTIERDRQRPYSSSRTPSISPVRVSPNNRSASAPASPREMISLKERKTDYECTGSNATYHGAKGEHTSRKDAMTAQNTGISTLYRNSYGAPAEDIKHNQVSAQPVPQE

Measured: binding result

B1: Tsg101 (aa 240-391) (other, human, UniProt Q99816 240-390, looked up)
chain: WRMKEEMDRAQAELNALKRTEEDLKKGHQKLEEMVTRLDQEVAEVDKNIELLKKKDEELSSALEKMENQSENNDIDEVIIPTAPLYKQILNLYAEENAIEDTIFYLGEALRRGVIDLDVFLKHVRLLSRKQFQLRALMQKARKTAGLSDLY
notes: range 240-391; also called C-terminal fragment of Tsg101; amino acid residues 240-390
binds: all assays above
